T1: phospho-SRC Y527 peptide [H-TSTEPQ-pY-QPGENL-OH]
T1 chain: TSTEPQYQPGENL


How the values were obtained:
[1] = target: T1, phospho-SRC Y527 peptide …
[2] = target: SRC (endogenous, from RA FLS lysates), P12931

Protein	in vitro dephosphorylation of the SRC phospho-Y527 peptide (PTP assay, Biomol Green, absorbance at 620 nm) [1]	basal phosphorylation of SRC Y527 in RA FLS after PTPRK knockdown (Western blotting) [2]
C-terminally HA-tagged wild type (WT) RPTPκ (NM 008983.2), full-length, immunoprecipitated from COS-1 cells (protein) ALGQFSAGGCTFDDGPGACDYHQDLYDDFEWVHVSAQEPHYLPPEMPQGSYMVVDSSNHDPGEKARLQLPTMKENDTHCIDFSYLLYSQKGLNPGTLNILVRVNKGPLANPIWNVTGFTGRDWLRAELAVSTFWPNEYQVIFEAEVSGGRSGYIAIDDIQVLSYPCDKSPHFLRLGDVEVNAGQNATFQCIATGRDAVHNKLWLQRRNGEDIPVAQTKNINHRRFAASFRLQEVTKTDQDLYRCVTQSERGSGVSNFAQLIVREPPRPIAPPQLLGVGPTYLLIQLNANSIIGDGPIILKEVEYRMTSGSWTETHAVNAPTYKLWHLDPDTEYEIRVLLTRPGEGGTGLPGPPLITRTKCAEPMRTPKTLKIAEIQARRIAVDWESLGYNITRCHTFNVTICYHYFRGHNESRADCLDMDPKAPQHVVNHLPPYTNVSLKMILTNPEGRKESEETIIQTDEDVPGPVPVKSLQGTSFENKIFLNWKEPLEPNGIITQYEVSYSSIRSFDPAVPVAGPPQTVSNLWNSTHHVFMHLHPGTTYQFFIRASTVKGFGPATAINVTTNISAPSLPDYEGVDASLNETATTITVLLRPAQAKGAPISAYQIVVEQLHPHRTKREAGAMECYQVPVTYQNALSGGAPYYFAAELPPGNLPEPAPFTVGDNRTYKGFWNPPLAPRKGYNIYFQAMSSVEKETKTQCVRIATKAAATEEPEVIPDPAKQTDRVVKIAGISAGILVFILLLLVVIVIVKKSKLAKKRKDAMGNTRQEMTHMVNAMDRSYADQSTLHAEDPLSLTFMDQHNFSPRLPNDPLVPTAVLDENHSATAESSRLLDVPRYLCEGTESPYQTGQLHPAIRVADLLQHINLMKTSDSYGFKEEYESFFEGQSASWDVAKKDQNRAKNRYGNIIAYDHSRVILQPVEDDPSSDYINANYIDIWLYRDGYQRPSHYIATQGPVHETVYDFWRMVWQEQSACIVMVTNLVEVGRVKCYKYWPDDTEVYGDFKVTCVEMEPLAEYVVRTFTLERRGYNEIREVKQFHFTGWPDHGVPYHATGLLSFIRRVKLSNPPSAGPIVVHCSAGAGRTGCYIVIDIMLDMAEREGVVDIYNCVKALRSRRINMVQTEEQYIFIHDAILEACLCGETAIPVCEFKAAYFDMIRIDSQTNSSHLKDEFQTLNSVTPRLQAEDCSIACLPRNHDKNRFMDMLPPDRCLPFLITIDGESSNYINAALMDSYRQPAAFIVTQYPLPNTVKDFWRLVYDYGCTSIVMLNEVDLSQGCPQYWPEEGMLRYGPIQVECMSCSMDCDVINRIFRICNLTRPQEGYLMVQQFQYLGWASHREVPGSKRSFLKLILQVEKWQEECEEGEGRTIIHCLNGGGRSGMFCAIGIVVEMVKRQNVVDVFHAVKTLRNSKPNMVEAPEQYRFCYDVALEYLESS	full-length RPTPk immunoprecipitated from COS-1 cells in vitro dephosphorylated a SRC phospho-Y527 peptide	
RPTPκ (endogenous, in human RA FLS and RA synovial tissue) (protein) AQGQFSAGGCTFDDGPGACDYHQDLYDDFEWVHVSAQEPHYLPPEMPQGSYMIVDSSDHDPGEKARLQLPTMKENDTHCIDFSYLLYSQKGLNPGTLNILVRVNKGPLANPIWNVTGFTGRDWLRAELAVSTFWPNEYQVIFEAEVSGGRSGYIAIDDIQVLSYPCDKSPHFLRLGDVEVNAGQNATFQCIATGRDAVHNKLWLQRRNGEDIPVAQTKNINHRRFAASFRLQEVTKTDQDLYRCVTQSERGSGVSNFAQLIVREPPRPIAPPQLLGVGPTYLLIQLNANSIIGDGPIILKEVEYRMTSGSWTETHAVNAPTYKLWHLDPDTEYEIRVLLTRPGEGGTGLPGPPLITRTKCAEPMRTPKTLKIAEIQARRIAVDWESLGYNITRCHTFNVTICYHYFRGHNESKADCLDMDPKAPQHVVNHLPPYTNVSLKMILTNPEGRKESEETIIQTDEDVPGPVPVKSLQGTSFENKIFLNWKEPLDPNGIITQYEISYSSIRSFDPAVPVAGPPQTVSNLWNSTHHVFMHLHPGTTYQFFIRASTVKGFGPATAINVTTNISAPTLPDYEGVDASLNETATTITVLLRPAQAKGAPISAYQIVVEELHPHRTKREAGAMECYQVPVTYQNAMSGGAPYYFAAELPPGNLPEPAPFTVGDNRTYQGFWNPPLAPRKGYNIYFQAMSSVEKETKTQCVRIATKAATEEPEVIPDPAKQTDRVVKIAGISAGILVFILLLLVVILIVKKSKLAKKRKDAMGNTRQEMTHMVNAMDRSYADQSTLHAEDPLSITFMDQHNFSPRYENHSATAESSRLLDVPRYLCEGTESPYQTGQLHPAIRVADLLQHINLMKTSDSYGFKEEYESFFEGQSASWDVAKKDQNRAKNRYGNIIAYDHSRVILQPVEDDPSSDYINANYIDGYQRPSHYIATQGPVHETVYDFWRMIWQEQSACIVMVTNLVEVGRVKCYKYWPDDTEVYGDFKVTCVEMEPLAEYVVRTFTLERRGYNEIREVKQFHFTGWPDHGVPYHATGLLSFIRRVKLSNPPSAGPIVVHCSAGAGRTGCYIVIDIMLDMAEREGVVDIYNCVKALRSRRINMVQTEEQYIFIHDAILEACLCGETAIPVCEFKAAYFDMIRIDSQTNSSHLKDEFQTLNSVTPRLQAEDCSIACLPRNHDKNRFMDMLPPDRCLPFLITIDGESSNYINAALMDSYRQPAAFIVTQYPLPNTVKDFWRLVYDYGCTSIVMLNEVDLSQGCPQYWPEEGMLRYGPIQVECMSCSMDCDVINRIFRICNLTRPQEGYLMVQQFQYLGWASHREVPGSKRSFLKLILQVEKWQEECEEGEGRTIIHCLNGGGRSGMFCAIGIVVEMVKRQNVVDVFHAVKTLRNSKPNMVEAPEQYRFCYDVALEYLESS		RA FLS treated with PTPRK ASO showed increased basal phosphorylation of SRC Y527
